# Results reported in patent publication US20140256614.
# System: MK2-activating peptide (transduction domain YARAAARQARA coupled to a Kaposin-derived region)
substance,measurement,value
"MK2 (endogenous, in rat pulmonary endothelial cells, RPMEC)",HSP27 phosphorylation in RPMEC after MK2 siRNA knock-down against control siRNA,MK2 siRNA reduced the level of MK2 in the cells and blocked the activity of the MK2-activating peptide
same,"phosphorylated HSP27 by immunoblot, time course at 50 µM peptide, RPMEC",significant MK2 activation was observed by 15 minutes of treatment
